Experimental data: a protein production outcome set (Wang et al. 2014)
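Also: failed if final PepcDB status was selected cloned or expressed and not failed if soluble or beyond.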

Test: label from the status in PepcDB records
In the case of “MATRRTFLRGAISLTLIGSTGQLRALAHPRANTWALPIDTQAQADLTRYVDVFIGSSGHGHTFPGATLPFGMVQLSPDTDNAVWDACSGYHASNGSIMGFSHTHLSGTGIGDMLDILLMPGTGDVKLAPGPLNAPETGYRQRYDHAEEVASPGYYQVRLKDTDIVAELTATARTGLHRYHFPQHQAGHLLLDLSHAMQDNPSTPPRLRDVELSIVDTRTLLGGRRVYQWAKGRYLFFAMRLSRPFARAQLYSNDAPLTADTRQVQGVCLKAALHFPDAGEAPLLVKVGLSAVSAANALANLDAELPDFDFARVHAEAVAAWENALGRARIATDNPAQRRIFYTSLYHSLLAPTLFSDVDGRYRGMDLQVHTLPTGYHNYSTYSLWDTYRALHPLLTLVQSDRVPDLLQCLVRGAAECPDGVGIWPLQGVETGCMIGYHSAVALAEGYTKGFTGIDYAAAWPHYRKRAMQDHAHGLRYYRRLGYIPSDKVDESVSRTLEYAYDDWACAHLATAAGAHSEARVLRARSRHYRHVFNRDSGFMQPRLENGAWATPFDPRALGHLKQWHDFTECNAWQATFLNQHDVYGYMALFGGADHFAAKLDALFSALSELPPGAPPDIDGMVGQYAHGNEPSHHIAYLYVYAGQAYKTQAMVRRLLREQYHDGRDGLSGNEDCGQMSAWFVLSALGMYAVDPVSGIYVIGSPLFPYAELDVGRGRKLRILARHTSASNVYVQALRWNGSPMTRAWLRHTELAGGGTLEFEMGAQPNLDFGTHPQDLPPSFMALQPVPKHA”, the protein production is reported as “failed”.
With “MATSMTDIKGFNMISIEQEKELGNKFAVEIEKQQQPVNDPEVQRYVDKVGKRLLSGARAVEFDYVFKVVKDDSVNAFAIPGGRVYVHTGLLKAADNETELAGVLAHEINHAVARHGTRQMTQEYGYSLVLSLVLGDNPNMLAQLAGQLFGKAGMMSYSREYENQADFLGVETMYKAGYNPNGLTSFFQKLNAMDGGTQSNVARFFSTHPLTSERIQRVQAEIAKLPPQRYLTDETEFKKIKGRLKLEHHHHHH” the protein production was “not failed”.
In the case of “MATTKRVLYVGGLAEEVDDKVLHAAFIPFGDITDIQIPLDYETEKHRGFAFVEFELAEDAAAAIDNMNESELFGRTIRVNLAKPMRIKE”, the protein production is reported as “not failed”.
With “MATVAFHTLGCKVNHYETEAIWQLFKEAGYERKEFESSADVYVINTCTVTNTGDKKSRQVIRRAIRQNPDAVICVTGCYAQTSPAEIMAIPGVDIVVGTQDREKMLGYIKQYQEERQPINGVSNIMKARVFEELDVPAFTDRTRASLKIQEGCNNFCTFCIIPWARGLLRSRDPEEVIRQAQQLVDAGYKEIVLTGIHTGGYGEDMKDYNFAQLLKELDSRVKGLKRIRISSIEASQITDEVIEVLDRSDKIVRHLHIPLQSGSNSVLKRMRRKYTMEFFADRLTKLKKALPGLAVTSDVIVGFPGETEEEFMETYNFIKEHKFSELHVFPYSKRTGTPAARMDGQVDENVKNERVHKLIALSDQLAKEYASDYEGDVLEIIPEEPFTETGEGNLLVGYTDNYIKVVFEGSEDLIGQLVKVKILKAGYPYNKGQFVRVAEDDVRENIRLSS” the protein production was “failed”.
In the case of “MAVAGAVSGEPLVHWCTQQLRKTFGLDVSEEIIQYVLSIESAEEIREYVTDLLQGNEGKKGQFIEELITKWQKNDQELISDPLQQCFKKDEILDGQKSGDHLKRGRKKGRNRQEVPAFTEPDTTAEVKTPFDLAKAQENSNSVKKKTKFVNLYTREGQDRLAVLLPGRHPCDCLGQKHKLINNCLICGRIVCEQEGSGPCLFCGTLVCTHEEQDILQRDSNKSQKLLKKLMSGVENSGKVDISTKDLLPHQELRIKSGLEKAIKHKDKLLEFDRTSIRRTQVIDDESDYFASDSNQWLSKLERETLQKREEELRELRHASRLSKKVTIDFAGRKILEEENSLAEYHSRLDETIQAIANGTLNQPLTKLDRSSEEPLGVLVNPNMYQSPPQWVDHTGAASQKKAFRSSGFGLEFNSFQHQLRIQDQEFQEGFDGGWCLSVHQPWASLLVRGIKRVEGRSWYTPHRGRLWIAATAKKPSPQEVSELQATYRLLRGKDVEFPNDYPSGCLLGCVDLIDCLSQKQFKEQFPDISQESDSPFVFICKNPQEMVVKFPIKGNPKIWKLDSKIHQGAKKGLMKQNKAV”, the protein production is reported as “not failed”.
In the case of “MAVEEFNQNLNEIMKFKECNITVDTCVVIDGRITELISDGTIEKCTIIVPEAVISELEAQANKGREIGYFGIEELKKLVKVAKENEMVLEYYGERPSTGEVSLAKAGEIDAMIRKVAKDTNSILFTSDRIQYNLAIAQNINAHFLKVHEEKVDLKLV”, the protein production is reported as “failed”.
In the case of “MAVFHDEVEIEDFQYDEDSETYFYPCPCGDNFAITKEDLENGEDVATCPSCSLIIKVIYDKDQFMCGETV”, the protein production is reported as “not failed”.
For “MAVGFFAQVIDGALGMAYGITATTFLLSAGATPAAASASVHIAEVFTTGFSGISHVKLGNVNKSLFLRLLLPGMIGAVLGAVLITRFDGHQLKPFISAYLLLMGLYILSKAYRHVIKRRAPRHVAKLALFGGFVDAAGGGWGPVVTSSLIGSGSDPRTTIGSVNFAEFFLTIASATSFILLAGQPDTWKMVAGLVFGGLFAAPFAALLCKKLSPRTLLVIVGTLITLISAYNIYIGLR”, the protein production was “failed”.
For “MAVLPPDPVFSLRSPDMGAVNSLCFQESDRLLAGTIKGSVFLWDLQTNRSALHFEVGSDPITSLHHTPDRLVTQEKGGTITMFSIGGSSYVKERSIPGNHLGFCRSALHTNTSKTNEQLLFYPCEESSIGVLHVTDAAAPTQILVPDDPQLPKLGSVTCFKPFECASQLFLLAGYESGHFLTWDISSSVILDVMELAQDATSVDYDPVTNRGIVGGPTDKLISFSYQRSSMQMQLGSELCIKNPGVNGVRIRPDQKVFASAGWDGRIRIFSWKSLRPLAVLTQHKNGGVMDLAFSSQQVAMWHAPIMAAAGMDGQISLWDLYN”, the protein production was “failed”.
For “MAVLVTGATGFIAQWVLDCLLKENYQVIGTVRSQEKGDKLHKQFGSPSKLSFEIVKDISDTEAFEPLFKKRGKEIDIVLHMASPCHFNTSDYEKDLLIPALNGTKGVLNAIKKYGDVKKVVVTSSYAAITDMVNSADGSLVFTEKDWNPATWERCQTDAVNAYCASKKFAEQAAWEFSKETGVSLTTINPVFVFGPQKFDEDVTSQLNTSNEIINGLIHSKPGDKLEPDYHSAYVDVRDVARAHLVAFQKDTTGERLGLSNGAFNCQSILDILNEKFPQLDITKGPEPGMGDTKPGAVFDNRHSKEVLAFPFISLEQCVYDTVAQVLKKEGRLLEHHHHHH”, the protein production was “not failed”.
In the case of “MAVMARHESYYGNTKPAKLNEEKVTRVRFYLHDTLSGQNPTAVRIAHANLTGGSASPVGFGSLFVIDDPLTVGPEKHSKEIGNGQGMYVSGCKDLSKFTIVMYADLAFTAGKFNGSSISIFSRNPVAEEVGEREIAIVGGRGKFRMARGFVKVKTNKIDMKTGDAVLRYDATVYHY”, the protein production is reported as “failed”.
In the case of “MAVRGVSLRQPYPREPRGWHQEWSLRRAMRMARAAYWESYSATATDFWMSAEFTSLYDADTPDDSVPLAPARDHDLTDSHAILQAHYAACWTEGRPFAVETKLIKPDGRLLDCVVHGEPEFDANGQVQRVFGIVRDATPETSALRQLAVSEQRLADFVSTASDWCWESGPDHRLLPYPKSLDGNAALQTVASGGKARWELAYAPDEEGSMALHRDDMEAHRPFRDFIYTSIGNDGSRIIISTSGKPIFADDGTFLGYRGTASDITQLAAARTLLDQRTGALEEAHRLGRIGTWTHRLDTGRTVWSPELYQLLGLEPDAFEPTYEGTEPYFLDDDAARLLKIQKRVLRTSTTEATDIRILHTDGTPRDLAIICKAEISNGNVIGLIGTAQDVTDRKEAERRLEQLAYTDPLTGLANRALYKRKLADLFENPMAEHGQNALYLIDLDRFKEVNDSLGHSTGDSLLIHVAGVLRQELGPQAFIARIGGDEFAVLTNSPNTSVEATTALADRLIAKLSVPVELAEGEACIGATIGIAILPEHGATAEKASRNADLALYMAKEAGRGRAQLFEPMYAEAVDQKLDLGRRLRHAVDSGGLNTHYQPQIDLKTGRVIGFEALLRWSHPERGPISPAEFIPIAETTGLIVDLGHWVLRDACKQMRGWLDAGLPARTISVNVSPAQIWNGDFEKVVATVLADTGLPPELLCLELTENLFVDHTKQKVSTTLAALSKLGIQLALDDFGSGYSSLGYLTRLPFNRLKIDRSFVDGIATVPEKRKLLGGIIALSHGLGMSVVAEGAELQAEVDLLAAFDCDFVQGYAFSKPVAADQAAVVAAEIERKPGR”, the protein production is reported as “failed”.
With “MAVRVCCHAPPGVSNHLFTFCAGNLTTGFSGGSVTSQKGGAAGLPTCSRRCPRGCLPGSDPLPRHPRRYAPPVTPPVTPPTTPAPRSRARMLELVFPKDTNYHGTAFGGWVLALMDKAASVAAVRHAGGNVVTARMDGVDFHVPIRVGDAVALDARVIRVGRSSMTIRVDVYRENMASGEQQLATGGLFTFVALGEDGKPRPVPPLPEGSTDSEQPDYEARPLEHHHHHH” the protein production was “failed”.
With “MAVSPDDPLILVGRVAGGFGVRGEVRITTYTEDPLSIAGFKALKRQDGSPALTIASARKTKDGVVCRCPGVETKEAADALRGLRLYVPRSALPEPDDDEFYLTDLVGLTVRHIQTDQLLGRVKSVQNFGAGDILEITPDLGGPTWYLPFTRAAVPEVRVSEGLILADPPALVGDHEGPEEKGLDENEELGDRDLEHHHHHH” the protein production was “failed”.
With “MAVTISGVRKHSPAYRHGIQAGERLLTLNGNEIMDVLDYRFYQLNTALVLELENNRGERRTVSLKKPEYEEIGLEFETYLMDRQHSCKNKCVFCFIDQLPKGLRKSLYFKDDDSRLSFLFGNYVTLTNLTEHEISRIIKMHISPMNISVHTTNPELRVKMMKNPRAGEALSIIRRFAQAGIKINCQIVLCPGYNDGEELKRTLSDLETMCPQVQAVAVVPVGITRYRQNLPEMRSFTRETAGEAIDLIESFGEKCLQKYGTRVAYPGDEFYLKAERPLPPAGFYEDFSMLENGVGLLPLLMDEFYSALEEAGETGGRKREITIATGMAPREYIRGFLDDAIKKFPHISGRVTPIVNRFFGETITVSGLVTGTDLIEQLSSVDLGDELLIPACMLRREGDLFLDDVSLQDVEAALKVPVRPVPNDGYAFLDAILGSESLEHHHHHH” the protein production was “failed”.
In the case of “MAVTLQQTLIDIDEEQLVFHLHNDQISYILGVETGNVLAHLYFGPRVRGYHGERQYPRIDRGFSGNLPNTTDRSYSKDDLPQEYGGNNTGDYRQPAAIIRAANGARTVDFRYQDCRMEAGKPELKGLPQTYVEDEDEAQTLIVTLRDATLGVTLELAYTIYRDRPVITRSARLINHSEQAVDLEKVASMQMDLPTQPLDAISLPGSYARERQLSRERLHRGVTQFESRRGASSHHMNPFVALADPNTNEFQGNVLGALLIYSGNHQISLERDPIGQTRLTMGINEYNFDWRLAAGDSFQTPEVAMVYSTTGLNGMSQTYHDLLRDRVARSRYKHDLRPILINNWEATYFDFDADKIQSILDAAAPLGIEMFVLDDGWFGHRNDDNSSLGDWFVNRNKLPGGLADISKRTHDKGMRFGLWFEPENISADSDLYRAHPDWVLGVPDRGRTLSRNEYVLDFSQPDVVDNIFEQMTAVLDKVPIDYIKWDMNRNLTEVYSPHSDSTHEGETSHRFILGVYDLMERLTKRYPQILFEGCSGGGGRFDAGLMYYMPQSWPSDNNDPIERLKIQYGTSLVYPISAITAHVGTSPDELLGRSTSMKMRGAVAMSGTLGYELDAAQLSDADKQAVKRQVAFYKQHRELVQYGTFYRLESPFESNTVAWMFVSPDQKEALLFTFVILGAVQPEPHITKLAGLDPQQTYVETDTNKMYGGDELMQLGLYTTPVQTSDFTAQVHYFKAKDLEHHHHHH”, the protein production is reported as “failed”.
With “MAVTPVLACYRTCDAAIGGITAWQVTTGPDGPRTNVVGSCPLGDASWVTPLYHLVVVLCERDGTLVVVHPGREFQVVGTVQLKGQWPCHGAVDPTGRLMAVADYASGQVEFVDLSDPTRPTVRNVLDLGQGCVFPRPVADRQEGPHAHQVTWLDRAHLAVTDLGADRINVVRWSEAGPEIIGSLKTPAGCGPRHLTLTEDGRKQILTVGGALSGTVSTWSRPTGHDMWAREWRFVQETASSRWSHTGSQERRSACTPASPSAIVTTPDGRHFVANRSVGSIGILGGRFGRINLIDEFDTTGANPRDITVTTQNGTRVWVALPEEGQIAIHLRDEDTGGWQVETTIDQPGAMRVIVGPTTG” the protein production was “failed”.
